In publication PMC9482650, “Quantitative fragmentomics allow affinity mapping of interactomes” (Nature Communications, 2022):
Values belong to the binder of their own block, whether it stands above or below them.

What was measured:
Assay in all cases: holdup assay
Parameters in all cases: key: below the threshold = too weak to quantify, mostly under pKd 3.1 to 4
[1] = biological target: Inadl_10, Q8NI35
[2] = biological target: GRIP2_7, Q9C0E4
[3] = biological target: DLG5_1, Q8TDM6
[4] = biological target: T1, DFNB31_3, Q9P202
T1 sequence (Q9P202 811-907, limits assumed, looked up): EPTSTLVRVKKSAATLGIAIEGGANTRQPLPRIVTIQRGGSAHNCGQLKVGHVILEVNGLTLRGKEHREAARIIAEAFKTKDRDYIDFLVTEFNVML

[5] = biological target: T2, GRIP1_7, Q9Y3R0
T2 sequence (Q9Y3R0 999-1096, limits assumed, looked up): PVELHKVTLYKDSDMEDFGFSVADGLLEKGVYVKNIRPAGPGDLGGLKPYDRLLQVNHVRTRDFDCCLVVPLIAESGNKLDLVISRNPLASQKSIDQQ

[6] = biological target: GRID2IP_1, A4D2P6
Sequence of GRID2IP_1, A4D2P6 (A4D2P6 1-87): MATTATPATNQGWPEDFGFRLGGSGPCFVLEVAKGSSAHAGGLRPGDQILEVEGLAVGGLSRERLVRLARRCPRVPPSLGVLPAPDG

[7] = biological target: T3, DFNB31_2, Q9P202
T3 sequence (Q9P202 274-371, limits assumed, looked up): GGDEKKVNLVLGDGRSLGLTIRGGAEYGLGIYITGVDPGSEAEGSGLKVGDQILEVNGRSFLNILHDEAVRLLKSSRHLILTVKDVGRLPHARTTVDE

[8] = biological target: SCRIB_2, Q14160
Sequence of SCRIB_2, Q14160 (Q14160 857-960): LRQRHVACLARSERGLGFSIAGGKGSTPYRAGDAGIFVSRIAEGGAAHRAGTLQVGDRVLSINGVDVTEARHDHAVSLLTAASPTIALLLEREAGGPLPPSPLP

[9] = biological target: PICK1, Q9NRD5
Sequence of PICK1, Q9NRD5 (Q9NRD5 17-115): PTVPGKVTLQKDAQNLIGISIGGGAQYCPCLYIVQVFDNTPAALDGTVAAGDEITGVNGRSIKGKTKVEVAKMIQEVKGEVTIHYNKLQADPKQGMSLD

[10] = biological target: LNX1_1, Q8TBB1
Sequence of LNX1_1, Q8TBB1 (Q8TBB1 261-371): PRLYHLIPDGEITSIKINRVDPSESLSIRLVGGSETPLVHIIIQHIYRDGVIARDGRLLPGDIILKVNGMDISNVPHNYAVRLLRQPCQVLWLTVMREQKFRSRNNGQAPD

[11] = biological target: TJP1_2, Q07157
Sequence of TJP1_2, Q07157 (Q07157 181-274): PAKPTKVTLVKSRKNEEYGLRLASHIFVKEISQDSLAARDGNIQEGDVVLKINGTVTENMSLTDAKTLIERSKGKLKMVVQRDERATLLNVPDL

[12] = biological target: TJP1_3, Q07157
Sequence of TJP1_3, Q07157 (Q07157 416-512): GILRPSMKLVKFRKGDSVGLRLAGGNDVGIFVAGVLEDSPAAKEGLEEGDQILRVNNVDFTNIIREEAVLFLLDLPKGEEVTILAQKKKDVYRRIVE

[13] = biological target: Inadl_2, Q8NI35
Sequence of Inadl_2, Q8NI35 (Q8NI35 238-335): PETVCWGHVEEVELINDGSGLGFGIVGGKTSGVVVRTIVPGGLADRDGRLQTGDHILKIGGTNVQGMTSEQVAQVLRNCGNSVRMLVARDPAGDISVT

[14] = biological target: CASK, O14936
Sequence of CASK, O14936 (O14936 487-570): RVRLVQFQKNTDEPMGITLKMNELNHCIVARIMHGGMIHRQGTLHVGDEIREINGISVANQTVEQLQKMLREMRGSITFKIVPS

[15] = biological target: MAGI3_2, Q5TCQ9
Sequence of MAGI3_2, Q5TCQ9 (Q5TCQ9 398-503): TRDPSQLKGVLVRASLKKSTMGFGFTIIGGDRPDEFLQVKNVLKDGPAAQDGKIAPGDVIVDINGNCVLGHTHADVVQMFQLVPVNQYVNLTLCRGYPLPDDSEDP

[16] = biological target: GRIP2_5, Q9C0E4
Sequence of GRIP2_5, Q9C0E4 (Q9C0E4 544-642): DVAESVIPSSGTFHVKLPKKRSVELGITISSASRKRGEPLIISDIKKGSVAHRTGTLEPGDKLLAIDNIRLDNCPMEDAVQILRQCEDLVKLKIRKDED

[17] = biological target: Inadl_6, Q8NI35
Sequence of Inadl_6, Q8NI35 (Q8NI35 1058-1167): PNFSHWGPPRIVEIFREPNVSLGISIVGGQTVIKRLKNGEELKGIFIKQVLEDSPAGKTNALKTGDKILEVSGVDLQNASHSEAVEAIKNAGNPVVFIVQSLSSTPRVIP

[18] = biological target: T4, SNTB1, Q13884
T4 sequence (Q13884 107-205, limits assumed, looked up): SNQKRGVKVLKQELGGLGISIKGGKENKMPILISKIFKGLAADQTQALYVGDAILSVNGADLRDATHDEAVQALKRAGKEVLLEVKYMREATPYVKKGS

[19] = biological target: HTRA2, O43464
Sequence of HTRA2, O43464 (O43464 355-458): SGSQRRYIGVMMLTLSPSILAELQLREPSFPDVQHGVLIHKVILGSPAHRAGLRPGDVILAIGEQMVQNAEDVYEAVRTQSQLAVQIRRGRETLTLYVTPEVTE

[20] = biological target: GORASP1, Q9BQQ3
Sequence of GORASP1, Q9BQQ3 (Q9BQQ3 1-208): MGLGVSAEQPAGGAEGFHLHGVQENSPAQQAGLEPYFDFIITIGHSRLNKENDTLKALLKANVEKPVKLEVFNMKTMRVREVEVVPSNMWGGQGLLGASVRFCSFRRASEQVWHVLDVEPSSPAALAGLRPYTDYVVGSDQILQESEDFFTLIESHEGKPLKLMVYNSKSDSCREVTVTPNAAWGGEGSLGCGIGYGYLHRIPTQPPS

[21] = biological target: GRID2IP_2, A4D2P6
Sequence of GRID2IP_2, A4D2P6 (A4D2P6 272-370): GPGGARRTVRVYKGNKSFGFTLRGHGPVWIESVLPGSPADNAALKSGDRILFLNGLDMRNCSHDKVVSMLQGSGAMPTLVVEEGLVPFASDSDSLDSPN

[22] = biological target: T5, MPDZ_10, O75970
T5 sequence (O75970 1624-1722, limits assumed, looked up): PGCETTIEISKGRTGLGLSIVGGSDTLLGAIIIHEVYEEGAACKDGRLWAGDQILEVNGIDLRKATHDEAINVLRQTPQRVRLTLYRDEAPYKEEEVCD

[23] = biological target: Inadl_1, Q8NI35
Sequence of Inadl_1, Q8NI35 (Q8NI35 113-229): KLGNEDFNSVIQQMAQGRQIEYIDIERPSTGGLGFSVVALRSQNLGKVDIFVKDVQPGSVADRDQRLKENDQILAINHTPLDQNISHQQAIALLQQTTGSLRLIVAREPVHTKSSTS

[24] = biological target: T6, LIN7C, Q9NUP9
T6 sequence (Q9NUP9 88-185, limits assumed, looked up): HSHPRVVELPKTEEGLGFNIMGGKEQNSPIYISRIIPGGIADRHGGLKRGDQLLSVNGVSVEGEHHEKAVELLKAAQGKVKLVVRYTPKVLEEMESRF

[25] = biological target: T7, MPP7, Q5T2T1
T7 sequence (Q5T2T1 134-230, limits assumed, looked up): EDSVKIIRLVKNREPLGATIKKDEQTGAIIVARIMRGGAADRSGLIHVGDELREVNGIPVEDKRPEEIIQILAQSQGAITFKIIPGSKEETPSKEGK

[26] = biological target: T8, LNX2_3, Q8N448
T8 sequence (Q8N448 463-564, limits assumed, looked up): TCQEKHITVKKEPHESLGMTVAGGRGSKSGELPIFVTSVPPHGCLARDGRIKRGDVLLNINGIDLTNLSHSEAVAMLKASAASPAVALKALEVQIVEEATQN

[27] = biological target: T9, TJP3_3, O95049
T9 sequence (O95049 375-456, limits assumed, looked up): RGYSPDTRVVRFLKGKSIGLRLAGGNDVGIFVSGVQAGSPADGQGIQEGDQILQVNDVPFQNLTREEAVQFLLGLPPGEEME

[28] = biological target: NHERF4_1, Q86UT5-2
Sequence of NHERF4_1, Q86UT5-2 (Q86UT5 other isoform, or with tags, fused parts or gaps): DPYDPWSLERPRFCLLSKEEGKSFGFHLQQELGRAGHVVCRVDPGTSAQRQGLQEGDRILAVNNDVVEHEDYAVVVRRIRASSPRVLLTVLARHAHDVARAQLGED

[29] = plain residues with an end cap or a label only (N-terminal biotin on a linker: ttds)
[30] = plain residues with an end cap or a label only (N-terminal biotin on a linker: ahx)

Sequence of Inadl_10, Q8NI35 (Q8NI35 1673-1763): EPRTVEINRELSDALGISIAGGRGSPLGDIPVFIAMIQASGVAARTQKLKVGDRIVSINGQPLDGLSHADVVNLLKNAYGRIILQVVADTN
Sequence of DLG5_1, Q8TDM6 (Q8TDM6 617-713): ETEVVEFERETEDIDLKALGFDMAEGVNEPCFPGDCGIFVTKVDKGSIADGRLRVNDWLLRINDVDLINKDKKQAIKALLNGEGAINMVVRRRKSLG
Sequence of GRIP2_7, Q9C0E4 (Q9C0E4 934-1023): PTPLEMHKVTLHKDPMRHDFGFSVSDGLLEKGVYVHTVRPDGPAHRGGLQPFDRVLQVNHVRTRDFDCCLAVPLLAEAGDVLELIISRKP

pKd [1, 29]: below the threshold
pKd [2, 29]: below the threshold
pKd [3, 29]: below the threshold
pKd [4, 29]: below the threshold
pKd [5, 29]: 3.63
pKd [6, 29]: below the threshold
pKd [7, 29]: below the threshold
pKd [8, 29]: below the threshold
pKd [9, 29]: below the threshold
pKd [10, 29]: below the threshold
pKd [11, 29]: below the threshold
pKd [12, 29]: below the threshold
pKd [13, 29]: below the threshold
pKd [14, 29]: below the threshold
pKd [15, 29]: 4.16
pKd [16, 29]: below the threshold
pKd [17, 29]: below the threshold
pKd [18, 29]: below the threshold
pKd [19, 29]: below the threshold
pKd [20, 29]: below the threshold
pKd [21, 29]: below the threshold
pKd [22, 29]: below the threshold
pKd [23, 29]: below the threshold
pKd [24, 29]: 3.63
pKd [25, 29]: below the threshold
pKd [26, 29]: below the threshold
pKd [27, 29]: below the threshold
pKd [28, 29]: below the threshold
Binder: PFRSRSPSEV [GPR6, P46095]

pKd [1, 29]: below the threshold
pKd [2, 29]: below the threshold
pKd [3, 29]: below the threshold
pKd [4, 29]: below the threshold
pKd [5, 29]: 3.72
pKd [6, 29]: below the threshold
pKd [7, 29]: below the threshold
pKd [8, 29]: 3.95
pKd [9, 29]: below the threshold
pKd [10, 29]: below the threshold
pKd [11, 29]: below the threshold
pKd [12, 29]: below the threshold
pKd [13, 29]: below the threshold
pKd [14, 29]: below the threshold
pKd [15, 29]: 5.22
pKd [16, 29]: below the threshold
pKd [17, 29]: below the threshold
pKd [18, 29]: 4.14
pKd [19, 29]: below the threshold
pKd [20, 29]: below the threshold
pKd [21, 29]: below the threshold
pKd [22, 29]: below the threshold
pKd [23, 29]: below the threshold
pKd [24, 29]: 4.23
pKd [25, 29]: below the threshold
pKd [26, 29]: below the threshold
pKd [27, 29]: below the threshold
pKd [28, 29]: below the threshold
Binder: KLVIKTETTV [RASSF6, Q6ZTQ3]

pKd [1, 30]: below the threshold
pKd [2, 30]: below the threshold
pKd [3, 30]: below the threshold
pKd [4, 30]: 3.88
pKd [5, 30]: below the threshold
pKd [6, 30]: below the threshold
pKd [7, 30]: below the threshold
pKd [8, 30]: below the threshold
pKd [9, 30]: below the threshold
pKd [10, 30]: below the threshold
pKd [11, 30]: below the threshold
pKd [12, 30]: below the threshold
pKd [13, 30]: 4.09
pKd [14, 30]: below the threshold
pKd [15, 30]: below the threshold
pKd [16, 30]: below the threshold
pKd [17, 30]: 3.71
pKd [18, 30]: below the threshold
pKd [19, 30]: below the threshold
pKd [20, 30]: 3.56
pKd [21, 30]: below the threshold
pKd [22, 30]: below the threshold
pKd [23, 30]: below the threshold
pKd [24, 30]: below the threshold
pKd [25, 30]: below the threshold
pKd [26, 30]: below the threshold
pKd [27, 30]: below the threshold
pKd [28, 30]: 3.6
Binder: KEYDDELTFF [USH1C, Q9Y6N9]
